What all share (assay): SEC
Test [1] deals with DENV2C L50S (dengue virus 2).
Test [2] addresses DENV2C L54S (dengue virus 2).
The target in test [3] is dengue virus 2 capsid protein (DENV2C), wild type (dengue virus 2).
In test [4] the target is DENV2C L81N (dengue virus 2).
Test [5] addresses DENV2C I88N (dengue virus 2).

Turning to DENV2C L50S (natural protein), in test [1], the stoichiometry N was 2.

As to DENV2C L54S (natural protein), in test [2], the stoichiometry N is 2. As to “dengue virus 2 capsid protein (DENV2C), wild type (natural protein)”, the stoichiometry N in test [3] came to 2.

With DENV2C L81N (natural protein), the stoichiometry N in test [4] came to 2.

Turning to DENV2C I88N (natural protein), in test [5], the stoichiometry N was 2.
